From article PMC9482650, “Quantitative fragmentomics allow affinity mapping of interactomes” (Nature Communications, 2022)

T1: APBA1_1, Q02410
T1 sequence (Q02410 651-752, limits assumed, looked up): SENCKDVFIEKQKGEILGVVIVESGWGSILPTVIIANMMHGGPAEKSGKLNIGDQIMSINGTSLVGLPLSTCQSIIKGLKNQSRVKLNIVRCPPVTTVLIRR

T2: APBA2_1, Q99767
T2 sequence (Q99767 563-664, limits assumed, looked up): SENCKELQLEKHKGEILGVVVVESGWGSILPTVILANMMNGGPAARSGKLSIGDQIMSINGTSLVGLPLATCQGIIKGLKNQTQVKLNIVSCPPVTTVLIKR

T3: APBA2_2, Q99767
T3 sequence (Q99767 654-744, limits assumed, looked up): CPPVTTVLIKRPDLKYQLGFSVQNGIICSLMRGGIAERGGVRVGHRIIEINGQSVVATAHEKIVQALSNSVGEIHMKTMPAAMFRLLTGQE

T4: APBA3_1, O96018
T4 sequence (O96018 389-490, limits assumed, looked up): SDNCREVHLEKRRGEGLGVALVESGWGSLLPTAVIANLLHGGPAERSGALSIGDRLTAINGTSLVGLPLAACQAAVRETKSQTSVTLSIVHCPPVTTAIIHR

T5: DFNB31_3, Q9P202
T5 sequence (Q9P202 811-907, limits assumed, looked up): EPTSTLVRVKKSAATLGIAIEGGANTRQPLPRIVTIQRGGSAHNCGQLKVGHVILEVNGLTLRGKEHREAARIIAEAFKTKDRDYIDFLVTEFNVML

T6: DVL3, Q92997
T6 sequence (Q92997 244-331, limits assumed, looked up): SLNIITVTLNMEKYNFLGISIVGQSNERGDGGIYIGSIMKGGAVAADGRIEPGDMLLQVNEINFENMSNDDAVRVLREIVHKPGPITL

T7: HTRA4, P83105
T7 sequence (P83105 378-476, limits assumed, looked up): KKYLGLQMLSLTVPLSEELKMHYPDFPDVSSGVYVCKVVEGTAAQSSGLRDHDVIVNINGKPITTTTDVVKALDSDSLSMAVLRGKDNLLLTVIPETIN

T8: LIN7B, Q9HAP6
T8 sequence (Q9HAP6 88-185, limits assumed, looked up): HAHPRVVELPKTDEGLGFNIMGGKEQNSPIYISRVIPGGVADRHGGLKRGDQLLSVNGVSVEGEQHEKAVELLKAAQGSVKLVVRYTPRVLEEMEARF

T9: MPDZ_10, O75970
T9 sequence (O75970 1624-1722, limits assumed, looked up): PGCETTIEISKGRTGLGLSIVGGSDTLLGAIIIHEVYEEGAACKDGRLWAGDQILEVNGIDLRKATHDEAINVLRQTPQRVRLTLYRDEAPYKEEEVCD

T10: NHERF3_4, Q5T2W1
T10 sequence (Q5T2W1 373-468, limits assumed, looked up): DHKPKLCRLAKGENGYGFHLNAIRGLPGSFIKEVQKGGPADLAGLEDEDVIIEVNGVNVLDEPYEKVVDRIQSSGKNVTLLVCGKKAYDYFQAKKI

T11: PDZD7_3, Q9H5P4
T11 sequence (Q9H5P4 857-944, limits assumed, looked up): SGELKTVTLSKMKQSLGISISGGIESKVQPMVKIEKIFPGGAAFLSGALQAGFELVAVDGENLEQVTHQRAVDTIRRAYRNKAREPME

T12: SIPA1L2, Q9P2F8
T12 sequence (Q9P2F8 945-1036, limits assumed, looked up): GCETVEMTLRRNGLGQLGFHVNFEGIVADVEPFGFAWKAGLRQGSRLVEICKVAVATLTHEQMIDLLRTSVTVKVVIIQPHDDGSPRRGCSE

T13: SYNJ2BP, P57105
T13 sequence (P57105 8-110, limits assumed, looked up): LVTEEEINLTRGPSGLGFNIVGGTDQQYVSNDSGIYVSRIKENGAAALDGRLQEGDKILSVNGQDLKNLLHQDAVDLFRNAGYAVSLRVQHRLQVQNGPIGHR


How the values were obtained:
Assay in all cases: holdup assay
Set-up in all cases: key: below the threshold = too weak to quantify, mostly under pKd 3.1 to 4
Conditions in all cases: plain residues with an end cap or a label only (N-terminal biotin on a linker: ado-ado)
APBA1_1, Q02410 = target: T1, APBA1_1, Q02410
APBA2_1, Q99767 = target: T2, APBA2_1, Q99767
APBA2_2, Q99767 = target: T3, APBA2_2, Q99767
APBA3_1, O96018 = target: T4, APBA3_1, O96018
DFNB31_3, Q9P202 = target: T5, DFNB31_3, Q9P202
DVL3, Q92997 = target: T6, DVL3, Q92997
FRMPD4, Q14CM0 = target: FRMPD4, Q14CM0
GRASP, Q7Z6J2 = target: GRASP, Q7Z6J2
GRIP2_3, Q9C0E4 = target: GRIP2_3, Q9C0E4
GRIP2_7, Q9C0E4 = target: GRIP2_7, Q9C0E4
HTRA4, P83105 = target: T7, HTRA4, P83105
Inadl_2, Q8NI35 = target: Inadl_2, Q8NI35
LIN7B, Q9HAP6 = target: T8, LIN7B, Q9HAP6
MAGI2_4, Q86UL8 = target: MAGI2_4, Q86UL8
MAGI3_2, Q5TCQ9 = target: MAGI3_2, Q5TCQ9
MAST2, Q6P0Q8 = target: MAST2, Q6P0Q8
MPDZ_10, O75970 = target: T9, MPDZ_10, O75970
NHERF3_4, Q5T2W1 = target: T10, NHERF3_4, Q5T2W1
PDLIM1, O00151 = target: PDLIM1, O00151
PDZD7_3, Q9H5P4 = target: T11, PDZD7_3, Q9H5P4
SIPA1L2, Q9P2F8 = target: T12, SIPA1L2, Q9P2F8
SNX27, Q96L92 = target: SNX27, Q96L92
SYNJ2BP, P57105 = target: T13, SYNJ2BP, P57105
TJP2_1, Q9UDY2 = target: TJP2_1, Q9UDY2
Chain of TJP2_1, Q9UDY2 (Q9UDY2 24-128): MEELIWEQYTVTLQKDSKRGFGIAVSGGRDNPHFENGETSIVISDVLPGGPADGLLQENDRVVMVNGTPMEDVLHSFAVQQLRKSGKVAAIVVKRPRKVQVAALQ

Chain of PDLIM1, O00151 (O00151 1-87): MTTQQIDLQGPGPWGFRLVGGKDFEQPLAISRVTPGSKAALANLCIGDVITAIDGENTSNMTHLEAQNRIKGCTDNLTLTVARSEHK
Chain of Inadl_2, Q8NI35 (Q8NI35 238-335): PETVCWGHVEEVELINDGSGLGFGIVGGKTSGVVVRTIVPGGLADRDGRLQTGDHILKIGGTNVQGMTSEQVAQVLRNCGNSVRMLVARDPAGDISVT
Chain of MAGI3_2, Q5TCQ9 (Q5TCQ9 398-503): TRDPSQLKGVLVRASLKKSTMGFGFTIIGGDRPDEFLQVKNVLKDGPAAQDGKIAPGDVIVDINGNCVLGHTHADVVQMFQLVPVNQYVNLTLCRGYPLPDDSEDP
Chain of GRIP2_7, Q9C0E4 (Q9C0E4 934-1023): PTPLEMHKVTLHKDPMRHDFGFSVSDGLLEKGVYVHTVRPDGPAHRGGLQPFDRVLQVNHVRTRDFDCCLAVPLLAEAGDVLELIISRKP
Chain of MAGI2_4, Q86UL8 (Q86UL8 772-865): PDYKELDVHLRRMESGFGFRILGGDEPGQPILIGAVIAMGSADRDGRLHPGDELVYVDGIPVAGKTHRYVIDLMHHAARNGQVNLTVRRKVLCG
Chain of FRMPD4, Q14CM0 (Q14CM0 67-160): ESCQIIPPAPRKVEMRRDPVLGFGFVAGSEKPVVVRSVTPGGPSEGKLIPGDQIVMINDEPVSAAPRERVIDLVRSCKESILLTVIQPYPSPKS
Chain of GRASP, Q7Z6J2 (Q7Z6J2 96-193): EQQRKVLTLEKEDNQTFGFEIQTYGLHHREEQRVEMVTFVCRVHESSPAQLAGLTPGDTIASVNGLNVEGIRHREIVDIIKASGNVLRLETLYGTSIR
Chain of MAST2, Q6P0Q8 (Q6P0Q8 1099-1202): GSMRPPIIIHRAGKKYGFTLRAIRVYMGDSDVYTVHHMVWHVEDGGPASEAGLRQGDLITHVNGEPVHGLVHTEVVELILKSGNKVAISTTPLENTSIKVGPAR
Chain of GRIP2_3, Q9C0E4 (Q9C0E4 238-339): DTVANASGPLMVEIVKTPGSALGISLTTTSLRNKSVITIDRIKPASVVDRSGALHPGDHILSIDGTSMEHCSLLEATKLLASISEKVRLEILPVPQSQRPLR

pKd (APBA1_1, Q02410)	pKd (APBA2_1, Q99767)	pKd (APBA2_2, Q99767)	pKd (APBA3_1, O96018)	pKd (DFNB31_3, Q9P202)	pKd (DVL3, Q92997)	pKd (FRMPD4, Q14CM0)	pKd (GRASP, Q7Z6J2)	pKd (GRIP2_3, Q9C0E4)	pKd (GRIP2_7, Q9C0E4)	pKd (HTRA4, P83105)	pKd (Inadl_2, Q8NI35)	pKd (LIN7B, Q9HAP6)	pKd (MAGI2_4, Q86UL8)	pKd (MAGI3_2, Q5TCQ9)	pKd (MAST2, Q6P0Q8)	pKd (MPDZ_10, O75970)	pKd (NHERF3_4, Q5T2W1)	pKd (PDLIM1, O00151)	pKd (PDZD7_3, Q9H5P4)	Binder	further results
3.68	3.66	below the threshold	below the threshold	below the threshold	below the threshold	4.57	3.58	below the threshold	below the threshold	3.98	below the threshold	below the threshold	3.6	below the threshold	5.62	below the threshold	below the threshold	3.54	3.56	PRAEAEDSFL [PDGFRB, P09619]	pKd (SIPA1L2, Q9P2F8): below the threshold; pKd (SNX27, Q96L92): 4.71; pKd (SYNJ2BP, P57105): 3.93; pKd (TJP2_1, Q9UDY2): below the threshold
below the threshold	below the threshold	below the threshold	below the threshold	3.85	below the threshold	3.49	below the threshold	below the threshold	below the threshold	below the threshold	below the threshold	3.74	below the threshold	below the threshold	below the threshold	below the threshold	below the threshold	below the threshold	below the threshold	KKAPTNEFYA [SDC4, P31431]	pKd (SIPA1L2, Q9P2F8): below the threshold; pKd (SNX27, Q96L92): below the threshold; pKd (SYNJ2BP, P57105): below the threshold; pKd (TJP2_1, Q9UDY2): below the threshold
below the threshold	below the threshold	below the threshold	below the threshold	below the threshold	below the threshold	below the threshold	3.48	below the threshold	below the threshold	3.97	below the threshold	below the threshold	3.76	4.47	4.73	below the threshold	below the threshold	below the threshold	4.56	QGPVETESVV [SLC45A4, Q5BKX6]	pKd (SIPA1L2, Q9P2F8): below the threshold; pKd (SNX27, Q96L92): 5.73; pKd (SYNJ2BP, P57105): 4.49; pKd (TJP2_1, Q9UDY2): below the threshold
below the threshold	below the threshold	below the threshold	below the threshold	below the threshold	3.81	below the threshold	3.82	below the threshold	below the threshold	4.08	below the threshold	below the threshold	4.24	4.21	3.77	below the threshold	below the threshold	below the threshold	below the threshold	FNSYSLTGYV [CLDN2, P57739]	pKd (SIPA1L2, Q9P2F8): 3.5; pKd (SNX27, Q96L92): 4.06; pKd (SYNJ2BP, P57105): 3.88; pKd (TJP2_1, Q9UDY2): 4.84
below the threshold	below the threshold	below the threshold	below the threshold	3.71	below the threshold	3.8	below the threshold	below the threshold	below the threshold	below the threshold	below the threshold	3.59	below the threshold	3.59	5.52	below the threshold	below the threshold	below the threshold	4.15	VKPQVSESKL [ACOT8, O14734]	pKd (SIPA1L2, Q9P2F8): below the threshold; pKd (SNX27, Q96L92): 5.34; pKd (SYNJ2BP, P57105): 3.75; pKd (TJP2_1, Q9UDY2): below the threshold
below the threshold	below the threshold	below the threshold	below the threshold	below the threshold	below the threshold	below the threshold	4.59	below the threshold	below the threshold	3.96	below the threshold	below the threshold	below the threshold	5.41	4.67	4.4	below the threshold	below the threshold	4.74	TKGPRGPTRV [SAPCD1, Q5SSQ6]	pKd (SIPA1L2, Q9P2F8): below the threshold; pKd (SNX27, Q96L92): 4; pKd (SYNJ2BP, P57105): 4.25; pKd (TJP2_1, Q9UDY2): 3.9
